According to patent US20250011397A1:

How the values were obtained:
[1] = molecular target: SARS-CoV-2 Spike on HIV-based pseudotyped virus (Spike plasmid BEI NR52310) (SARS-CoV-2) (UniProt P0DTC2); experiment: cell-based or functional assay
[2] = molecular target: mouse FcRn (mouse) (UniProt Q61559)
[3] = molecular target: mouse FcγRI (mouse) (UniProt P26151)
[4] = molecular target: mouse FcRn (mouse) (UniProt Q61559); experiment: pH 5.6

Sequence of mouse FcγRI (mouse) (P26151 25-297 limits assumed): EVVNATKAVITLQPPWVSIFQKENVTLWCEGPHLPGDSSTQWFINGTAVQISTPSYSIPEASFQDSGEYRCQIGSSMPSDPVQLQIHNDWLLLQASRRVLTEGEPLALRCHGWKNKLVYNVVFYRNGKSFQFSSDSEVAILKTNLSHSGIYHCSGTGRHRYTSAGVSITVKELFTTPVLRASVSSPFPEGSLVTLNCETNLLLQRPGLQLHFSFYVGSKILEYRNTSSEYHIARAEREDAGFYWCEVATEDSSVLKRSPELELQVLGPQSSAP
Sequence of mouse FcRn (mouse) (Q61559 22-297 limits assumed, form in doubt, chain 1 of 2): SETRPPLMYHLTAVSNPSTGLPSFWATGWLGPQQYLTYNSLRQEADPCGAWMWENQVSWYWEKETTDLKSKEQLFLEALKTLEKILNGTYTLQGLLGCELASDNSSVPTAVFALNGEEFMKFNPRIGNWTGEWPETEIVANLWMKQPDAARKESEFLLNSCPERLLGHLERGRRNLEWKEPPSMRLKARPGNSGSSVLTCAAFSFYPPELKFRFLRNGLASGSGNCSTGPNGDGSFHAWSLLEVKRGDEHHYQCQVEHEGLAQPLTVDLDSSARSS
Sequence of mouse FcRn (mouse) (chain, as listed by the source limits assumed, form in doubt, chain 2 of 2): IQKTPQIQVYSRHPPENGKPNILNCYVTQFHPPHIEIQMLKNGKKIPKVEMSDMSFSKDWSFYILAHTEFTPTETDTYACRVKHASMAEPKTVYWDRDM

Substance | IC50 (PsV neutralization) [1] | kon [2] | Kd [3] | koff [3] | kon [3] | Kd [4] | koff [4]
REGN10933 (recombinant mAb, reference IgG) (antibody) | 0.0044 mg/L |  |  |  |  |  | 
REGN10987 (recombinant mAb, reference IgG) (antibody) | 0.03 mg/L |  |  |  |  |  | 
mouse surrogate Multabody (HD37, mouse IgG2a Fc, mouse apoferritin), WT Fc |  | 682000 M⁻¹ s⁻¹ | < 1 pM | < 1e-07 s⁻¹ | 939000 M⁻¹ s⁻¹ | < 1 pM | < 1e-07 s⁻¹
mouse surrogate Multabody with LALAP Fc |  | 2.4e+06 M⁻¹ s⁻¹ |  |  |  | < 1 pM | < 1e-07 s⁻¹
